The values below are quoted from earlier work in PMC9980337.

Several values for one entry are separate records, joined by “and”; a condition that tells them apart may be missing. Equal values may be shown once.

For the series, the target named is IL-18 (Homo sapiens) (UniProt Q14116).
IL-18 (Homo sapiens), sequence (Q14116 37-193): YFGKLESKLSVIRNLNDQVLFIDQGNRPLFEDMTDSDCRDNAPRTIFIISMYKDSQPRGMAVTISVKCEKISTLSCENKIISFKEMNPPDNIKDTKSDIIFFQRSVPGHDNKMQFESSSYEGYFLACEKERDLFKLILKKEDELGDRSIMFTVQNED

IL-18BP, sequence (O95998 31-194): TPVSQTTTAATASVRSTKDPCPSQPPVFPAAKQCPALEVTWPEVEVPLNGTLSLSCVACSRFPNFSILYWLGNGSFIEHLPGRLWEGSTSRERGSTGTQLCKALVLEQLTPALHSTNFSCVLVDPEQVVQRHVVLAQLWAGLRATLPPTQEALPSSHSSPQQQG

Take IL-18BP (from UniProt O95998): the equilibrium dissociation constant (Kd) (commonly the concentration at which binding is half-saturated) was 0.4 nM and 0.05 nM.
